These results are taken from US9212226B2, “Amino acid sequences directed against CXCR4 and other GPCRs and compounds comprising the same” (Ablynx N.V., priority 2008, dated 2015).

The target in this test is T1, CXCR3 (Homo sapiens, UniProt P49682).
T1 sequence (P49682 1-368): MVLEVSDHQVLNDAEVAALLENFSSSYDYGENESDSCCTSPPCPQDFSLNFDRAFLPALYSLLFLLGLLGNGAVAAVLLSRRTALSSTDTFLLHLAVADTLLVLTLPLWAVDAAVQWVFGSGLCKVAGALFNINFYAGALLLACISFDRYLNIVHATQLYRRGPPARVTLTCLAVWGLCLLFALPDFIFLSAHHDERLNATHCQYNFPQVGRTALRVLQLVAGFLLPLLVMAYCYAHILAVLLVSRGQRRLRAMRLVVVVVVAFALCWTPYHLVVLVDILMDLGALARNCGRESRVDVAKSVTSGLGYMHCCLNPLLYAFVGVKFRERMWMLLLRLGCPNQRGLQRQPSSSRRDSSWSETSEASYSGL
The test can be described thus: Binding of [125I]-238D2 / [125I]-238D4 to membranes from HEK293T cells expressing CXCR4 or CXCR3. The conditions noted are these: radiolabelled Nanobody.

B1: [^125I]-238D4: 125I-labeled Nanobody 238D4 used as radioligand (protein)
VHH: EVQLMESGGGLVQAGGSLRLSCAASGRTFNNYAMGWFRRAPGKEREFVAAITRSGVRSGVSAIYGDSVKDRFTISRDNAKNTLYLQMNSLKPEDTAVYTCAASAIGSGALRRFEYDYSGQGTQVTVSS
With B1, the “binding to CXCR4 membranes compared to CXCR3 membranes” value is “selectively bind”.

B2: [^125I]-238D2: 125I-labeled Nanobody 238D2 used as radioligand (protein)
VHH: EVQLVESGGGLVQTGGSLRLSCAASGFTFSSYAMSWVRQAPGKGLEWVSGIKSSGDSTRYAGSVKGRFTISRDNAKNMLYLQMYSLKPEDTAVYYCAKSRVSRTGLYTYDNRGQGTQVTVSS
Turning to B2, the “binding to CXCR4 membranes compared to CXCR3 membranes” value is given as “selectively bind”.
